Test results taken from US20090311267A1 (UNIVERSITY OF WURZBURG, published 2009).
“And” between values parts separate entries of the source, which are not always exact repeats. Equal values may be shown once.

Assays:
[1] = molecular target: human platelet glycoprotein GPIb (on human platelets) (human, UniProt P07359 17-652); assay: cell-based or functional assay
[2] = molecular target: T1, (1-289) recombinant (r) GPIbα fragment expressed by Chinese hamster ovary cells (human, UniProt P07359 17-305); assay: ELISA: inhibition of botrocetin (0.5 µg/ml)-induced binding of vWF to rGPIbα captured on 2D4
T1 construct: they seem to count on the mature chain, not on the precursor; Fragment obtained from Meyer et al; also called rGPIb-fragment; recombinant GPIbα fragment (His1-Val289)

[3] = molecular target: T1, (1-289) recombinant (r) GPIbα fragment …; assay: ELISA: inhibition of ristocetin (300 µg/ml)-induced binding of vWF to rGPIbα captured on 2D4

IC50 of botrocetin-(0.5 µg/ml) induced human platelet agglutination [1]: 2 µg/ml and 40 nmol/L
IC50 of ristocetin-(1 mg/ml) induced human platelet agglutination [1]: 1.2 µg/ml and 24 nmol/L
IC50 [2]: 2.5 µg/mL and 50 nM
IC50 [3]: 1.8 µg/mL and 36 nM
B1: 6B4 Fab fragments (Fab, V domains shown)
VH: QVQLQESGPGLVAPSQSLSITCTVSGISLNRYGVHWVRQPPGKGLEWLGVIWTGGSTNYNSALMSRLSISKDNSKSQVFLKMNSLQTDDTAMYYCARDRSTMITAYAMDYWGQGTTVTVSS
VL: DIELTQSPAIMSASPGEKVTMTCSASSSVNYMHWFQQESGTFPKRRIYDTSKLASGVPARLSGSGSGTEFTLEISRVKAEDVGVYYCQQLVEYPLTFGAGTKLELK
